Data: PMC2517623, “The NDR/LATS Family Kinase Cbk1 Directly Controls Transcriptional Asymmetry” (PLoS Biology, 2008)

B1: GST-Ace2(122-150) S137D (domain or fragment)
chain: SGTAIFGFLGHNKTLDISSLQQSILNMSK
notes: source: E. coli BL21(DE3)RIL, immobilised from lysate on glutathione-sepharose and washed; not shown: GST, N-terminal, kept
B2: GST-Ace2(122-150), wild-type (domain or fragment)
chain: SGTAIFGFLGHNKTLSISSLQQSILNMSK
notes: as for B1
B3: GST-Ace2(122-150) F127V (domain or fragment)
chain: SGTAIVGFLGHNKTLSISSLQQSILNMSK
notes: as for B1
B4: GST-Ace2(122-150) S122D (domain or fragment)
chain: DGTAIFGFLGHNKTLSISSLQQSILNMSK
notes: as for B1

Target: His6-Crm1 (S. cerevisiae, UniProt P30822 1-1084)
Assay: pull-down; GST fusions immobilised on glutathione-sepharose from E. coli lysate and washed five times in PBS/KMD; His6-Xpo1 (Crm1) 5 μM in 100 μl, 4 °C, 15 min; washed with TBST; SDS-PAGE, GelCode Blue; without Ran-GTP
Conditions: both partners purified

Binding result, binds:
B1
B2
B3
B4
